Source: the supplement of paper PMC7877785
± gives the uncertainty stated by the source.

Test: self-splicing fitness, log relative to wild type (ln ratio); higher = more splicing; Tetrahymena group I intron in knt gene, E. coli kanamycin selection, DiMSum; sequences stand for … in CUCUCU…GGAGGGAAAAGUUAUCAGGCAUGCACCUGGUAGCUAGUCUUUAAACCAAUAGAUUGCAUCGGUUUAAAAGGCAAGACCGUCAAAUUGCGGGAAAGGGGUCAACAGCCGUUCAGUACCAAGUCUCAGGGGAAACUUUGAGAUGGCCUUGCAAAGGGUAUGGUAAUAAGCUGACGGACAUGGUCCUAACCACGCAGCCAAGUCCUAAGUCAACAGAUCUUCUGUUGAUAUGGAUGCAGUUCACAGACUAAAUGUCGGUCGGGGAAGAUGUAUUCUUCUCAUAAGAUAUAGUCGGACCUCUCCUUAAUGGGAGCUAGCGGAUGAAGUGAUGCAACACUGGAGCCGCUGGGAACUAAUUUGUAUGCGAAAGUAUAUUGAUUAGUUUUGGAGUACUCGUGGUCG
Outline: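 DiMSum derived fitness as the error-weighted combination of fold changes across replicates, kanamycin versus no kanamycin, normalised to wild type. E. coli BL21(DE3) held the library, which randomised all eight P1ex-region intron nucleotides within the knt kanamycin-resistance gene on pET-22b(+). Six replicate transformations grew overnight at 37°C or 30°C on LB agar with or without 25 μg/mL kanamycin, also containing 100 μg/mL carbenicillin, 50 μM IPTG and 0.2% rhamnose, and pooled colonies were amplicon-sequenced on an Illumina HiSeq 2500.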

Sequence	self-splicing fitness (ln) (30 °C)	self-splicing fitness (ln) (37 °C)
GUUCAGCAAUAUUACGACCU	0.353 ± 0.16	0.115 ± 0.17
AGAGAGCAAUAUUACGUGUA	-2.73 ± 0.3	-2.78 ± 0.32
CCGUAGCAAUAUUACGAACG	-1.07 ± 0.12	-0.439 ± 0.15
ACUUAGCAAUAUUACGAUCA	-1.45 ± 0.14	-0.47 ± 0.13
ACUCAGCAAUAUUACGGGCC	-1.32 ± 0.092	-1.13 ± 0.11
UGAGAGCAAUAUUACGGACA	-1.66 ± 0.18	-0.674 ± 0.2
AAACAGCAAUAUUACGUUGA	-2.58 ± 0.094	-1.23 ± 0.089
AGAAAGCAAUAUUACGCAAU	-2.18 ± 0.072	-0.965 ± 0.075
GAAAAGCAAUAUUACGACAU	-0.184 ± 0.011	0.116 ± 0.032
UGAUAGCAAUAUUACGUGUA	-2.89 ± 0.18	-1.38 ± 0.13
CGUUAGCAAUAUUACGUUGC	-3.94 ± 0.34	-1.95 ± 0.18
GGAGAGCAAUAUUACGAAGU	-3.48 ± 0.37	-1.33 ± 0.2
CACCAGCAAUAUUACGUCGG	-1.36 ± 0.059	-0.518 ± 0.072
CCUCAGCAAUAUUACGUAUA	-3.44 ± 0.19	-3.16 ± 0.32
GUUGAGCAAUAUUACGGGAA	-3.4 ± 0.23	-2.39 ± 0.23
GGCUAGCAAUAUUACGCUAU	-1.3 ± 0.11	0.0903 ± 0.12
UUCGAGCAAUAUUACGGUCC	-1.91 ± 0.39	-1.56 ± 0.43
AGCAAGCAAUAUUACGUACA	-1.22 ± 0.074	-0.296 ± 0.085
UUCUAGCAAUAUUACGAUCA	-1.69 ± 0.23	-0.172 ± 0.18

Sequence	self-splicing fitness (ln) (30 °C)	self-splicing fitness (ln) (37 °C)
CUACAGCAAUAUUACGCUAG	-3.58 ± 0.18	-2.36 ± 0.23
GACGAGCAAUAUUACGCUUU	-3.17 ± 0.46	-0.0656 ± 0.19
CACAAGCAAUAUUACGUUAU	-2.95 ± 0.098	-2.7 ± 0.11
UACCAGCAAUAUUACGCCAC	-3.59 ± 0.2	-3.17 ± 0.37
UUCGAGCAAUAUUACGAGUA	-1.57 ± 0.15	-1.43 ± 0.18
CAAGAGCAAUAUUACGGGGU	-4.66 ± 0.2	-2.61 ± 0.19
GGCUAGCAAUAUUACGCCUC	-1.35 ± 0.18	-0.927 ± 0.23
GGACAGCAAUAUUACGCCCC	-0.414 ± 0.41	
CUCGAGCAAUAUUACGAGCG	-3.66 ± 0.43	-2.84 ± 0.25
UGCCAGCAAUAUUACGCGUC	-2.05 ± 0.12	-1.8 ± 0.15
AGCCAGCAAUAUUACGCACG	-2.34 ± 0.11	-0.605 ± 0.12
CAUAAGCAAUAUUACGAGGA	-3.13 ± 0.18	-2.23 ± 0.21
CGACAGCAAUAUUACGCUCA	0.00701 ± 0.094	-0.503 ± 0.1
GGUAAGCAAUAUUACGGACC	-0.973 ± 0.43	
GCUUAGCAAUAUUACGUUCU	-1.03 ± 0.095	0.0827 ± 0.1
CAAAAGCAAUAUUACGGACC	-3 ± 0.21	-1.98 ± 0.2
AAACAGCAAUAUUACGUUUC	-3.8 ± 0.1	-2.73 ± 0.11
UGUCAGCAAUAUUACGAUAA	-0.114 ± 0.06	0.438 ± 0.074
UUACAGCAAUAUUACGUUGC	-3.56 ± 0.37	-2.37 ± 0.26
